According to article PMC10030352:

Biological target: human NCC_(cryo1) (human) (UniProt P55017)
Test: cryo-EM structure

- stoichiometry N: 2
Substance: human NCC_(cryo1) (from UniProt P55017 1-1021) (natural protein)
